The target of the assay is SARS-CoV-2 S receptor-binding domain (RBD) with C-terminal His6 tag (SARS-CoV-2, glycan N343). The assay can be described thus: BLI.

B1: CR3022 IgG (human IgG1, kappa) (antibody, V domains shown)
VH: EVQLVQSGTEVKKPGESLKISCKGSGYGFITYWIGWVRQMPGKGLEWMGIIYPGDSETRYSPSFQGQVTISADKSINTAYLQWSSLKASDTAIYYCAGGSGISTPMDVWGQGTTVTVSS
VL: not shown
Turning to B1, binding was put at a Kd of 12.4 nM.

These data come from publication doi:10.1101/2020.03.15.992883 (2020).
